The labels stand for the following.
T1: FcγRIIb extracellular domain with C-terminal His tag (human, UniProt P31994 43-217)
T1 construct: extracellular domain; Soluble receptor expressed in FreeStyle293 cells and used as analyte in Biacore; also called FcgRIIb; 2b; not shown: His tag attached to the C terminus
T1 sequence (looked up): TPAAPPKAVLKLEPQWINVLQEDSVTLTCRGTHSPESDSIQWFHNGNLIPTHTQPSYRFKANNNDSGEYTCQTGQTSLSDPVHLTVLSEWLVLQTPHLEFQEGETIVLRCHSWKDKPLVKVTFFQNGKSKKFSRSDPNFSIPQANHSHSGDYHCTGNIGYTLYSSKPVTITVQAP

B1: GpH7-A5/GpH7-B3 variant D270_01G/GpL16-k0 (antibody, human IgG1, kappa)
heavy 1: not shown
heavy 2: not shown
light: DIVMTQSPLSLPVTPGEPASISCQASESLVHSNRNTYLHWYLQKPGQSPQLLIYKVSNRFSGVPDRFSGSGSGTDFTLKISRVEAEDVGVYYCSQNTHVPPTFGQGTKVEIERTVAAPSVFIFPPSDEQLKSGTASVVCLLNNFYPREAKVQWKVDNALQSGNSQESVTEQDSKDSTYSLSSTLTLSKADYEKHKVYACEVTHQGLSSPVTKSFNRGEC
notes: Heterodimerized anti-glypican-3 IgG1 with the alteration in only one H chain; also called He Ab
B2: GpH7-A5/GpH7-B3 variant D270_12R/GpL16-k0 (antibody, human IgG1, kappa)
heavy 1: not shown
heavy 2: not shown
light: B1 light
notes: as for B1
B3: GpH7-A5/GpH7-B3 variant D270_08L/GpL16-k0 (antibody, human IgG1, kappa)
heavy 1: not shown
heavy 2: not shown
light: B1 light
notes: as for B1
B4: GpH7-A5/GpH7-B3 variant E269_13S/GpL16-k0 (antibody, human IgG1, kappa)
heavy 1: not shown
heavy 2: not shown
light: B1 light
notes: as for B1
B5: GpH7-A5/GpH7-B3 variant D270_19Q/GpL16-k0 (antibody, human IgG1, kappa)
heavy 1: not shown
heavy 2: not shown
light: B1 light
notes: as for B1
B6: GpH7-A5/GpH7-B3 variant D270_15Y/GpL16-k0 (antibody, human IgG1, kappa)
heavy 1: not shown
heavy 2: not shown
light: B1 light
notes: as for B1
B7: GpH7-A5/GpH7-B3 variant E269_11K/GpL16-k0 (antibody, human IgG1, kappa)
heavy 1: not shown
heavy 2: not shown
light: B1 light
notes: as for B1
B8: GpH7-A5/GpH7-B3 variant E269_06M/GpL16-k0 (antibody, human IgG1, kappa)
heavy 1: not shown
heavy 2: not shown
light: B1 light
notes: as for B1
B9: GpH7-A5/GpH7-B3 variant E269_03V/GpL16-k0 (antibody, human IgG1, kappa)
heavy 1: not shown
heavy 2: not shown
light: B1 light
notes: as for B1
B10: GpH7-A5/GpH7-B3 variant D270_13S/GpL16-k0 (antibody, human IgG1, kappa)
heavy 1: not shown
heavy 2: not shown
light: B1 light
notes: as for B1
B11: GpH7-A5/GpH7-B3 variant D270_07I/GpL16-k0 (antibody, human IgG1, kappa)
heavy 1: not shown
heavy 2: not shown
light: B1 light
notes: as for B1
B12: GpH7-A5/GpH7-B3 variant E269_08L/GpL16-k0 (antibody, human IgG1, kappa)
heavy 1: not shown
heavy 2: not shown
light: B1 light
notes: as for B1
B13: GpH7-A5/GpH7-B3 variant E269_07I/GpL16-k0 (antibody, human IgG1, kappa)
heavy 1: not shown
heavy 2: not shown
light: B1 light
notes: as for B1
B14: GpH7-A5/GpH7-B3 variant D270_10E/GpL16-k0 (antibody, human IgG1, kappa)
heavy 1: not shown
heavy 2: not shown
light: B1 light
notes: as for B1

T2 sequence (P08637 17-208): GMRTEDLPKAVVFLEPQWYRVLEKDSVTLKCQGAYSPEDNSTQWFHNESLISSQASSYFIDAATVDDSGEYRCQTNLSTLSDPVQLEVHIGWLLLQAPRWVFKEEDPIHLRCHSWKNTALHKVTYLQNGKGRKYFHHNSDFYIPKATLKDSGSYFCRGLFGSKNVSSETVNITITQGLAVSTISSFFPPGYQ

The first assay concerns the target T2, FcγRIIIa extracellular domain with C-terminal His tag (human, UniProt P08637 17-208).
T2 construct: extracellular domain; also called FcgRIIIa; 3a; not shown: His tag attached to the C terminus
The assay is described as follows: SPR (Biacore); He/Con_3a divided by He/Con_2b (FcγRIIIa over FcγRIIb). As for the experimental part:
(§1) The heterodimerized antibodies He Abs in which one of the H chains was introduced with an alteration were assayed for their binding activities to each activating FcγR and inhibitory FcγR according to the method described in Example 4. […] The activating FcγRs in FIGS. 26, 27, 28, and 29 are FcγRIa, FcγRIIa (R), FcγRIIa (H), and FcγRIIIa, respectively.
(§2) Analysis of interaction between objective antibody and the FcγR was carried out using Biacore T100 (GE Healthcare). HBS-EP+ (GE Healthcare) was used as the running buffer, and the measurement temperature was set to 25° C. Chips produced by immobilizing the antigen peptide by the amine coupling method to a Series S Sencor Chip CM5 (GE Healthcare), or alternatively, chips produced by allowing preliminarily biotinylated antigen peptides to interact with and immobilize onto a Series S Sensor Chip SA (certified) (GE Healthcare) were used. Antibodies of interest were captured onto an antigen peptide-immobilized chip, and allowed to interact to each FcγR diluted with running buffer. To regenerate and repeatedly use the chip, the antibodies captured on the chip were washed off by reacting 10 mM glycine-HCl, pH 1.5.
A general note: Surface plasmon resonance follows binding to a sensor surface in real time, without labels.
B1 yielded a He_3a/2b of 1.26 ratio.
The same measure, in the same setting: the figure for B2 is 1.58 ratio; for B3 it is 1.34 ratio; for B4 it is 1.31 ratio.
B5 showed a He_3a/2b of 1.7 ratio.
With B6, the He_3a/2b came to 1.22 ratio.
In turn, B7 yielded a He_3a/2b of 2.47 ratio.
Still for that read-out and setting: the figure for B8 is 1.25 ratio; for B9 it is 1.25 ratio.
Still for that read-out and setting: the figure for B10 is 1.28 ratio; for B11 it is 1.68 ratio.
On the same count and under the same terms, the figure for B12 is 1.21 ratio.
Take B13: the He_3a/2b worked out at 1.27 ratio.
On to B14, for which the He_3a/2b is 1.61 ratio.

The next assay addresses T2, FcγRIIIa extracellular domain with …. Briefly: SPR (Biacore), antibody captured, FcγR as analyte; binding activity relative to control heterodimerized antibody. The protocol: as §1, §2
Turning to B1, the He/Con_3a is 38.5 % of GpH7-A5/GpH7-B3/GpL16-k0 (=100).
Same read-out and setting: the figure for B2 is 28.8 % of GpH7-A5/GpH7-B3/GpL16-k0 (=100); for B3 it is 71.8 % of GpH7-A5/GpH7-B3/GpL16-k0 (=100).
Same read-out and setting: the figure for B4 is 62.7 % of GpH7-A5/GpH7-B3/GpL16-k0 (=100); for B5 it is 81.9 % of GpH7-A5/GpH7-B3/GpL16-k0 (=100).
As for B6, the He/Con_3a was 54.5 % of GpH7-A5/GpH7-B3/GpL16-k0 (=100).
Consider B7, for which the He/Con_3a is 44 % of GpH7-A5/GpH7-B3/GpL16-k0 (=100).
On to B8, for which the He/Con_3a is 58.5 % of GpH7-A5/GpH7-B3/GpL16-k0 (=100).
As to B9, the He/Con_3a was 56.6 % of GpH7-A5/GpH7-B3/GpL16-k0 (=100).
Still for that read-out and setting: the figure for B10 is 56.7 % of GpH7-A5/GpH7-B3/GpL16-k0 (=100); for B11 it is 69.6 % of GpH7-A5/GpH7-B3/GpL16-k0 (=100); for B12 it is 52.1 % of GpH7-A5/GpH7-B3/GpL16-k0 (=100).
The same measure, in the same setting: the figure for B13 is 55.8 % of GpH7-A5/GpH7-B3/GpL16-k0 (=100); for B14 it is 123 % of GpH7-A5/GpH7-B3/GpL16-k0 (=100).

In another assay the target is T1, FcγRIIb extracellular domain with …. Described as above. As for the experimental part:
as §1, §2
For the molecule B1, the He/Con_2b is 30.5 % of GpH7-A5/GpH7-B3/GpL16-k0 (=100).
With B2, the He/Con_2b was 18.3 % of GpH7-A5/GpH7-B3/GpL16-k0 (=100).
As for B3, the He/Con_2b is 53.6 % of GpH7-A5/GpH7-B3/GpL16-k0 (=100).
Still for that read-out and setting: the figure for B4 is 47.8 % of GpH7-A5/GpH7-B3/GpL16-k0 (=100).
Consider B5, for which the He/Con_2b was 48 % of GpH7-A5/GpH7-B3/GpL16-k0 (=100).
On the same count and under the same terms, the figure for B6 is 44.9 % of GpH7-A5/GpH7-B3/GpL16-k0 (=100).
In the case of B7, the He/Con_2b is 17.8 % of GpH7-A5/GpH7-B3/GpL16-k0 (=100).
For the molecule B8, the He/Con_2b was 46.7 % of GpH7-A5/GpH7-B3/GpL16-k0 (=100).
Consider B9, for which the He/Con_2b is 45.1 % of GpH7-A5/GpH7-B3/GpL16-k0 (=100).
For the molecule B10, the He/Con_2b is 44.2 % of GpH7-A5/GpH7-B3/GpL16-k0 (=100).
Still for that read-out and setting: the figure for B11 is 41.5 % of GpH7-A5/GpH7-B3/GpL16-k0 (=100); for B12 it is 42.9 % of GpH7-A5/GpH7-B3/GpL16-k0 (=100).
The same measure, in the same setting: the figure for B13 is 43.9 % of GpH7-A5/GpH7-B3/GpL16-k0 (=100); for B14 it is 76.5 % of GpH7-A5/GpH7-B3/GpL16-k0 (=100).

Source of the values: patent publication US20150344570A1 (published 2015).
